{
  "source": "patent US20160060325A1",
  "about": "(POMONA RICERCA S R L, published 2016)",
  "binders": {"B1": {"name": "Fab28 (monoclonal antibody produced by clone INF28, human Fab fragment) (Fab, V domains shown)", "VH": "LEESGGGVVQPGRSLRLSCAASGFPFSSYGMHWVRQAPGKGLEWVAGVSYDGSYKYYADSVKGRFTISRDSSKSTLYLQMNSLRPEDTAVYYCARPSAIFGIYIILNGLDVWGQGTTVTVSS", "VL": "ELTQSPSSVSASVGDRVTITCRATQGISSWLAWYQQKPGKPPKLLIFGASSLQSGVPSRFSGSGSGTDFTLTISSLQPEDFATYFCQQAHSFPLTFGGGTKVEIK"}},
  "key": {"[1]": {"molecular_target": "hemagglutinin (HA) of influenza A virus H3N2, strain A/Victoria/3/75 (influenza A virus H3N2, strain …, UniProt P03435 17-567)", "sequence (P03435 17-567 limits assumed)": "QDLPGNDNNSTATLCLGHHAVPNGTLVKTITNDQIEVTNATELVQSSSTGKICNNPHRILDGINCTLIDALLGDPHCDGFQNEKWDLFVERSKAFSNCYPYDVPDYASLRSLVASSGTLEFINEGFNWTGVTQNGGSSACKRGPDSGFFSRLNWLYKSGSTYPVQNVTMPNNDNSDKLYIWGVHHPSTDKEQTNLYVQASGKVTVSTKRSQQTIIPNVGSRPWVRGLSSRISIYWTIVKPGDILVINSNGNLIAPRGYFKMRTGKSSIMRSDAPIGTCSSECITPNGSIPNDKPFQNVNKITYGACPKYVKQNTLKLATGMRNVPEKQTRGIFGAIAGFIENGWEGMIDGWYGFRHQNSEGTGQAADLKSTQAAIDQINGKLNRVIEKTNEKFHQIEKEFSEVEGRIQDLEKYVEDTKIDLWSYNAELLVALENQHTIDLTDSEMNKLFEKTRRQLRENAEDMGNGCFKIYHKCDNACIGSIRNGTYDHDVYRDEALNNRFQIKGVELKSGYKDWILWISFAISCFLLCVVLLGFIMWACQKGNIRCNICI", "test": "cell-based or functional assay"}, "[2]": {"molecular_target": "hemagglutinin (HA) of influenza A virus H1N1, strain A/PR/8/34 (influenza A virus H1N1, strain A/PR/8/34, UniProt P03452 18-565)", "sequence (P03452 18-565 limits assumed)": "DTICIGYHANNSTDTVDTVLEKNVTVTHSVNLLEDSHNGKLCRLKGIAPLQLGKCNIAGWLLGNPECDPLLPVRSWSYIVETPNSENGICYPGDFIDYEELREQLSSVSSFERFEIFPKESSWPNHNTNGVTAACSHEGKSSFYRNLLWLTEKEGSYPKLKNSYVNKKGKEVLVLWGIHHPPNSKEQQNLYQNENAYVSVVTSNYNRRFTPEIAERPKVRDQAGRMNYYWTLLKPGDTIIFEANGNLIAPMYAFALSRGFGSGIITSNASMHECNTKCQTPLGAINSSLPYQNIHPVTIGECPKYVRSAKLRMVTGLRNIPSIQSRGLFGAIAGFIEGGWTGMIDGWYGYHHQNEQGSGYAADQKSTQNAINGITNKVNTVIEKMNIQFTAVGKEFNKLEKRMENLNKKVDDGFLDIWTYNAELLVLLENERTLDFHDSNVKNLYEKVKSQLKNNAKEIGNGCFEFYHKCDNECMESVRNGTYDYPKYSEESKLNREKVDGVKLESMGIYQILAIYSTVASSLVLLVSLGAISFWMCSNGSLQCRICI", "test": "cell-based or functional assay"}, "[3]": {"molecular_target": "hemagglutinin (HA) of influenza A virus H1N1, strain A/Malaya/302/54 (influenza A virus H1N1, strain …)", "test": "cell-based or functional assay"}, "[4]": {"molecular_target": "hemagglutinin (HA) of influenza A virus H3N2, strain A/PC/1/73 (influenza A virus H3N2, strain A/PC/1/73, UniProt Q1PUD9 17-566)", "sequence (Q1PUD9 17-566)": "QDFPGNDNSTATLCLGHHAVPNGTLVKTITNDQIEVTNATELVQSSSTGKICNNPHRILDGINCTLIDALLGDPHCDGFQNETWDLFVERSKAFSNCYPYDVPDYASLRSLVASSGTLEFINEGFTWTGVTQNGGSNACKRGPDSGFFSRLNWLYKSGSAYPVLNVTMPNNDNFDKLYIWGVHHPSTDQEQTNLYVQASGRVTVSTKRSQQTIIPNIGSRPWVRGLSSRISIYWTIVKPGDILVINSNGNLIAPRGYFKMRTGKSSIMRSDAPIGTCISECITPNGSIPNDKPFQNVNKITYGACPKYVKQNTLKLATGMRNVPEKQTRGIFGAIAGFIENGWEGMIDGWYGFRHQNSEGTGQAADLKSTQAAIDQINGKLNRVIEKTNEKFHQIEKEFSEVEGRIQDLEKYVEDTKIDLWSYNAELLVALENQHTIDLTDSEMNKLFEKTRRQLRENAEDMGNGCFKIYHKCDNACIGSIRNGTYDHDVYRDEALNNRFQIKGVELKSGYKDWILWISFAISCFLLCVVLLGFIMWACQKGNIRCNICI", "test": "cell-based or functional assay"}, "[5]": {"molecular_target": "HA2 subunit of hemagglutinin (individual subunit, Western blot) (influenza A virus H1N1, strain A/PR/8/34, UniProt P03452 344-565)", "sequence (P03452 344-565 limits assumed)": "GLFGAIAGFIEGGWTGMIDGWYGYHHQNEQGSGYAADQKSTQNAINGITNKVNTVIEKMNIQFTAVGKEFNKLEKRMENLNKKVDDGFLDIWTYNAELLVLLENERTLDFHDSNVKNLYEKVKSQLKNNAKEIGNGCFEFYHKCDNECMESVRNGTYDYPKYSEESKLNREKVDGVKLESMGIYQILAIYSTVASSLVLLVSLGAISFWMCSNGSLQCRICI", "test": "Western blot"}},
  "data": [
    {"binder": "B1", "values": [
      {"measurement": "IC50, neutralization by plaque reduction assay, H3N2 A/Victoria/3/75", "setting": "[1]", "value": "~20", "unit": "µg/mL"},
      {"measurement": "IC50, neutralization by plaque reduction assay, H1N1 A/PR/8/34", "setting": "[2]", "value": "< 2.5", "unit": "µg/mL"},
      {"measurement": "IC50, neutralization by plaque reduction assay, H1N1 A/Malaya/302/54", "setting": "[3]", "value": "< 2.5", "unit": "µg/mL"},
      {"measurement": "IC50, neutralization by plaque reduction assay, H3N2 A/Port Chalmers/1/73", "setting": "[4]", "value": "~20", "unit": "µg/mL"},
      {"measurement": "binding result", "setting": "[5]", "value": "no binding"}
    ]}
  ]
}
